The source of these data is patent US20040033952A1 (published 2004).

The target in test [1] is T1, human IGFBP-1 (human, UniProt P08833 26-259).
T1 construct: mature; also called IGFBP-I
T1 sequence (looked up): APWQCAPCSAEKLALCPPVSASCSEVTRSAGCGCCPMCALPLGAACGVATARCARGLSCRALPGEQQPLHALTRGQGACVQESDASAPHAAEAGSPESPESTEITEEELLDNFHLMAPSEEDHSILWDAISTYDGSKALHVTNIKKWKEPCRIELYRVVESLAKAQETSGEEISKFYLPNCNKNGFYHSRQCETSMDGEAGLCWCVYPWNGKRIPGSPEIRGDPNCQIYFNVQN
Kind of test: competitive phage ELISA. The method, then:
(§1) E. coli cells (XL1-Blue, Stratagene) freshly transformed with phagemid vector were grown overnight in 5 mL 2YT medium (Sambrook et al., supra) in the presence of M13-VCS helper phage (Stratagene). Phage particles were harvested and resuspended in PBS buffer as described in Lowman, H. B., “Phage Display of Peptide Libraries on Protein Scaffolds,” in Cabilly, S. (ed.), Combinatorial Peptide Library Protocols (Humana Press Inc.: Totowa, N.J., 1998), pp. 249-264. Then phage concentrations were normalized to yield a maximal ELISA signal of 0.2-0.4 for each mutant (Lowman, in Cabilly, S. (ed.), supra). Threefold serial dilutions of soluble competitor were prepared on non-absorbent microtiter plates (Nune, F, 96 wells) with binding buffer (0.5% TWEEN™ 20/PBS) containing phage at the previously-determined concentrations. The dilution range of competitor protein extended over six orders of magnitude, starting at 5 μM for IGFBP-1 and 500 nM for IGFBP-3. After blocking, the plates containing immobilized target were washed with 0.05% TWEEN™/PBS buffer and subsequently incubated with 80 μl/well of the premixed phage-competitor solutions for 1 hour at room temperature. After washing, bound phage was detected with 80 μl/well of a solution containing a primary rabbit anti-phage polyclonal antibody and a secondary goat anti-rabbit monoclonal antibody-horseradish peroxidase conjugate in 0.5% TWEEN20™/PBS. o-Phenylenediamine (Sigma) and tetramethylbenzidine (Kirkegaard and Perry) were used as chromogenic substrates, resulting in product detection at 492 and 450 nm, respectively. IC₅₀ values were determined by fitting the binding data to a generic saturation curve (Lowman, in Cabilly, S. (ed.), supra).

For test [2], the target named is T2, recombinant human IGFBP-3 (human, UniProt P17936 28-291).
T2 construct: mature
T2 sequence (P17936 28-291): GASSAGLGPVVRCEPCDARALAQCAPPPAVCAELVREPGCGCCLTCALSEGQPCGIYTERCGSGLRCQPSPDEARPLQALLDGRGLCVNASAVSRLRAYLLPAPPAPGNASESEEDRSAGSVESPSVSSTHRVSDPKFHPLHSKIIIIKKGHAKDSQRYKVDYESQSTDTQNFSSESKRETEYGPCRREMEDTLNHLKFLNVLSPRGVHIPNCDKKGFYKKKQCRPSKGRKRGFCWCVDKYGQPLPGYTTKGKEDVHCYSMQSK
The test can be described thus: competitive phage ELISA. The method, then: as §1

Test [3] concerns the target T3, human IGFBP-1 (human), P08833.
T3 chain: T1 sequence (looked up)
The test can be described thus: competitive phage ELISA. The following applies: remark: other sources report otherwise.

The target is the same in test [4]. Kind of test: competitive phage ELISA, IGFBP-3-coated wells, soluble IGFBP-1 as competitor (FIG. 3A). The following applies: remark: other sources report otherwise.

Positions count from the first letter of the chain named. Names may count otherwise.

On to “IGF-I L5A (phage-displayed) (from UniProt P69168 267-424) (ligand)”, for which the figures for the relative IC50 (IC50 mut/IC50 G1S-A70V) in test [1] and in test [2] were 6.7 and 2, respectively.

B1: IGF-I F49A (phage-displayed), P07455 51-118 (ligand, not shown: large carriers; small tags and cut ends)
chain: SPETLCGAELVDALQFVCGDRGFYFNKPTGYGSSSRRAPQTGIVDECCARSCDLRRLEMYCAPLKPAKSV
In the case of B1, the relative IC50 (IC50 mut/IC50 G1S-A70V) in test [3] was above 100. Further, in test [4], the shift of the binding curve against G1S-A70V phage was above 100 fold.

B2: Ala(1-3)-IGF-I (phage-displayed triple alanine mutant) (ligand)
chain: B1 chain with S1A, P2A, E3A, A49F
Consider B2, for which the IC50 in test [1] is 90.4 nM; in test [2], 1.12 nM.

B3: IGF-I G7A (phage-displayed) (ligand)
chain: B1 chain with G7A, A49F
notes: G1S-A70V template; monovalent M13 display; not shown: M13 gene III fragment (residues 249-406), the display carrier, and its junction to IGF-I
On to B3, for which the IC50 in test [2] stood at 4.58 nM.
